# From IntAct's records for PubMed 19804756
# Key:
# [1] = molecular target: nbs1_schpo nbs1 (UniProt O43070)
# [2] = molecular target: nbn_human NBN (UniProt O60934)
# Sequence of nbn_human NBN (O60934 whole entry): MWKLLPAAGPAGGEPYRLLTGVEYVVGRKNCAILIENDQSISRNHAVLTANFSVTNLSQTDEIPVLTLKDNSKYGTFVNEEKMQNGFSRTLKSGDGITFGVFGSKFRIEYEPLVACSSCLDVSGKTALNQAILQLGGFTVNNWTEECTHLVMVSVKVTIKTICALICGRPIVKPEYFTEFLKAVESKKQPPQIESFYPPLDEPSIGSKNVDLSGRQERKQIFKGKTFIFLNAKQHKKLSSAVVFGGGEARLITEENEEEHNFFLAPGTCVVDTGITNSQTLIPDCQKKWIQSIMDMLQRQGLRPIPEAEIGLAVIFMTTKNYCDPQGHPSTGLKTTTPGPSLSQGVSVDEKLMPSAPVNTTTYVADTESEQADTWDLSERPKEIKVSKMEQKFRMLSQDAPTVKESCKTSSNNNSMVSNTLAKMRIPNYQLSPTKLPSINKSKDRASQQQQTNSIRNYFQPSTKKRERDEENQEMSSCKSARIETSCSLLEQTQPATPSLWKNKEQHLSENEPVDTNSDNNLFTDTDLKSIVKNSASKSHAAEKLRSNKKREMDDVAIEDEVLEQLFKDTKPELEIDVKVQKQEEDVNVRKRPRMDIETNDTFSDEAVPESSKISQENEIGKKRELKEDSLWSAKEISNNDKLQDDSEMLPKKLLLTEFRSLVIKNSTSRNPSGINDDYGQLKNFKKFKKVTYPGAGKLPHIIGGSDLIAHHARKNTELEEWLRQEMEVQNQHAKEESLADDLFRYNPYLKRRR
# Sequence of nbs1_schpo nbs1 (O43070 whole entry): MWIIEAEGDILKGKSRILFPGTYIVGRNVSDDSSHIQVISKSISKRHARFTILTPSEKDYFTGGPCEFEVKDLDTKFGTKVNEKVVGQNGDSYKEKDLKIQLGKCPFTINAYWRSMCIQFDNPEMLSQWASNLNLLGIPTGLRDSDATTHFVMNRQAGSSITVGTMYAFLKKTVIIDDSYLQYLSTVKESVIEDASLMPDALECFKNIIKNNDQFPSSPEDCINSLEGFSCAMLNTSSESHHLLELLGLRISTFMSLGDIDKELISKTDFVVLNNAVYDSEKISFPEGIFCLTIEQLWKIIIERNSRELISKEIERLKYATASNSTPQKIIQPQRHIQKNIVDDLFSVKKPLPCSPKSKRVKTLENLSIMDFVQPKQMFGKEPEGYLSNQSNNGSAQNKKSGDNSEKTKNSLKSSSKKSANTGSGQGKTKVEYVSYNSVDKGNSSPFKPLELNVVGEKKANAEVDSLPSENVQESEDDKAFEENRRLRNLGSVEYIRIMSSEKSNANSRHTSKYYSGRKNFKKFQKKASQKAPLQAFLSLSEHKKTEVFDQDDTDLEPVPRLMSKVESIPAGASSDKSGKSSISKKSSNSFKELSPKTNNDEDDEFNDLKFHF
effect of a mutation on the interaction [1],effect of a mutation on the interaction [2],Substance
decreasing interaction,,"Mediator of DNA damage checkpoint protein 1 (Homo sapiens), Q14676 E334A"
,decreasing interaction,"Mediator of DNA damage checkpoint protein 1 (Homo sapiens), Q14676 T331S"
